Measurements taken from patent publication US20150299764A1, “IMMOBILISED CYCLIN-DEPENDENT KINASE 4 FUSION PROTEINS AND USES THEREOF” (UNIVERSITE LIBRE DE BRUXELLES, priority 2012, published 2015).

Columns and labels:
[1] = biological target: biotinylated Avi-tagged luciferase/EGFP fusion (pWFAvi_IBc_luc) [luciferase: P08659]; test: pull-down from HEK293T extract on streptavidin-coated sepharose beads; bound luciferase activity relative to bound plus unbound
MCF7 cells = test: BrdU incorporation (DNA synthesis) in quiescent MCF7 cells; assay type: cell-based; details: fulvestrant 10 nM during the last 24 h of the incubation without serum and insulin, results not shown
Procedure: MCF7 cells (ATCC HTB-22) were routinely cultivated in Dulbecco's Modified Eagle Medium (DMEM) comprising 5% serum, 6 ng/ml insulin, 0.1 mM non essential amino acids (NEAA, GIBCO), 1 mM Sodium pyruvate, 50 U/ml Penicillin and 50 μg/ml Streptomycin. The cells were rendered quiescent by incubating them for three days in phenol-free DMEM without serum and insulin, but supplemented with 0.1 mM NEAA (GIBCO), 1 mM Sodium pyruvate, 50 U/ml Penicillin and 50 μg/ml Streptomycin. Cells were kept quiescent (control) or were stimulated to proliferate by adding 5% serum and 6 ng/ml insulin in the culture medium. Samples were harvested 2 h, 4 h, 6 h, 8 h, 10 h, 12 h, 16 h, and 24 h after stimulation of MCF7 cells. Bromodeoxyuridine (BrdU, 10^−4 M) and fluorodeoxyuridine (2.10^−6 M) were added to the cells for the last 24 h of culture. BrdU staining was used to record DNA synthesis. […] DNA synthesis resumed 16 h after stimulation by serum and insulin (FIG. 5, dashed line).
When fulvestrant (10 nM) was added to the culture to block estrogen receptor action during the last 24 h of the incubation without serum and insulin, the proportion of cells starting DNA synthesis dropped to less than 2% (results not shown).

Row | Compound | percent of the total luciferase activity bound [1] | proportion of cells starting DNA synthesis (MCF7 cells)
1 | streptavidin (from UniProt P22629 37-163) | < 40% | 
2 | C[C@]12CC[C@@H]3c4ccc(O)cc4C[C@@H](CCCCCCCCC[S+]([O-])CCCC(F)(F)C(F)(F)F)[C@H]3[C@@H]1CC[C@@H]2O (some centres unmarked) [fulvestrant] |  | less than 2%
